Data as given in paper PMC11074299.

Molecular target: Casp-8^tDED_F122G/L123G mutant (human) (UniProt Q14790)
Assay: crystal structure; FA^FuL_H9G-C8^FGLG-CF^H7G complex; proteins individually expressed in E. coli, complex co-purified by Ni-NTA and SEC (80 mM NaCl, 20 mM Tris pH 8.0); hanging drop, 20 °C; MR-SAD; 3.1 Å; one 1:5:4 complex per asymmetric unit; FADD DD not visible

stoichiometry N: 5
Substance: Casp-8^tDED_F122G/L123G mutant (from UniProt Q14790 1-185) (domain or fragment)
